The text below walks through data of US11072592B2, “Small molecules that enable cartilage rejuvenation” (The Regents of the University of California, priority 2015, dated 2021).

One test has as its system cartilage explants. Description: Cartilage explant culture: tissue expansion, COL2 and GAG content. In kind it is cell-based, pig. The conditions noted are these: cartilage explants/plugs in culture. From the text: The same stimulatory effect was achieved after treatment of explants with CRMs identified in our small molecule screen. […] This can test if activation of p-STAT3 and c-MYC by selected small molecules CRM-398 and -423 can result in in situ expansion of articular cartilage tissue.
Mature articular cartilage is comprised of chondrocytes contained within lacunae surrounded by dense extracellular matrix. In order for a regenerative response to occur, proliferation, survival and migration must all proceed in concert. […] We designed two sets of experiments to assess the ability of RCGD 423 to operate in this capacity. First, RCGD 423 or cytokines implicated in the growth and differentiation of articular cartilage were incubated with small plugs of cartilage tissue; after 5 weeks, the amount of COL2 and glycosaminoglycans (GAGs) were determined.
Cartilage explants were washed with PBS and then directly digested or stored at […]. For digestion, explants were transferred in digestion buffer composed of 1 mg/mL proteinase K in Tris/Ethylene diamine tetra-acetic acid (EDTA) buffer (pH 7.6) containing 18.5 μg/mL iodoacetamide and 1 μg/mL pepstatin A) for 16-72 h at 56° C. After complete digestion the GAG content was spectrophotometrically determined with 1,9-dimethylmethylene blue chloride staining in the phosphate buffer with ethylene diamine tetra-acetic acid buffer (14.2 g/L Na2HPO4 and 3.72 g/L Na2EDTA, pH 6.5) using an Infinite M1000 Pro microplate reader (Tecan) at an absorbance of 520 nm with chondroitin sulfate as a standard. Amount of total DNA in explants was determined by a CyQuant DNA Kit (Molecular Probes by Life Technology) using Qubit 1.0 fluorometer (Invitrogen).
Cultured explants were first digested in testicular hyaluronidase (0.05% in 50 mM HEPES) for 2 hours at 37° C. 0.5M glacial acetic acid was added to digestion solution to maximize the collagen swelling and provide best pepsin access. Pepsin (250 μg/ml) was then used to further digest the pellets in combination with rotation and occasional gentle vortexing at 4° C. for 18-24 hours. Cold tris base and NaOH were added to the digestion solution to neutralize the acetic acid. Digestion solution was vigorously vortexed immediately, and subsequently rotated at 4° C. overnight to maximize collagen solubility. Tubes were centrifuged to separate undigested tissue and supernatant. Any undigested tissue was subjected to the digestion process again. All supernatants were combined for ELISA. Concentration of collagen II in the supernatant was measured by Type I/II Collagen Detection Kit (Chondrex, Inc, Redmond, Wash.), according to manufacturer's instruction and normalized either to DNA content or wet weight of the explants determined prior to experimentation.

The subject of test [1] is pSTAT3 and MYC. Description: Western blot of pSTAT3 and MYC in adult pig articular chondrocytes. Type of test: cell-based. The note with it: adult pig articular chondrocytes; for ability of both LIF and RCGD 423 to induce increases in pSTAT3 and MYC: inhibitor plus LIF or RCGD 423; for levels of MYC / levels of pSTAT3: treated vs untreated, relative to histone H3. From the text:
Only early passages of chondrocytes (passage 0-2) were used for experimentation to avoid de-differentiation and loss of cartilage phenotype (Wu et al., 2014). Cartilage explants were made using 1, 2 or 8 mm biopsy punch and wet weight of each explant determined prior to experimentation. For cell isolation cartilage tissue was digested as described previously (Wu et al., 2015). Postnatal paraffin embedded joint and growth plate specimens were kindly donated by Dr Marcel Karperien from the University of Twente (Netherlands) and Dr Nick Bernthal from University of California Los Angeles. All donated material was anonymous and carried no personal identifiers. Cell culture reagents were purchased from Life Technologies, Inc. (Grand Island, N.Y.). Growth factors LIF, OSM, IL-6, TNF-α, IL-1β were purchased from Life Technologies, Inc (Grand Island, N.Y.). STATTIC, 10058-F4, SCl44 hydrochloride, and CP-690550 were purchased from Sigma Aldrich (St. Louis, Mo.). RCGD 423 (N-(4-Bromophenyl)-4-phenyl-1,3-thiazol-2-amine) was synthesized and provided by MolPort (Riga, Latvia). Fetal, adult and pig chondrocytes were cultured in DMEM F12 medium containing 10% (vol/vol) fetal bovine serum and 1% Penicillin-Streptomycin (vol/vol) at 37° C. in a humidified atmosphere of 95% aid and 5% CO2. Media was replenished with DMEM F12 medium containing 1% (vol/vol) fetal bovine serum and 1% Penicillin-Streptomycin (vol/vol) once treatments were added. For 3-dimensional (3D) cell cultures adult human articular chondrocytes were incubated with or without RCGD 423 using 10% solution of Mebiol® hydrogel from Cosmo Bio (Carlsbad, Calif.) in X-vivo 15 serum free medium from Lonza (Walkersville, Md.) as described previously (Wu et al., 2014).
(§1) Treated and non-treated ells were lysed in RIPA Lysis and Extraction Buffer (Pierce, Rockford, Ill.) containing protease inhibitors (Pierce) followed by sonication with a 15-second pulse at a power output of 2 using the VirSonic 100 (SP Industries Company, Warminster, Pa.). Protein concentrations were determined by BCA protein assay (Pierce). Proteins were resolved with SDS-PAGE utilizing 4-15% Mini-PROTEAN TGX Precast Gels and transferred to Trans-Blot Turbo Transfer Packs with a 0.2-μm pore-size nitrocellulose membrane. The SDS-PAGE running buffer, 4-15% Mini-PROTEAN TGX Precast Gels, Trans-Blot Turbo Transfer Packs with a 0.2-μm pore-size nitrocellulose membrane were purchased from Biorad (Hercules, Calif.). Nitrocellulose membranes were blocked in 5% nonfat milk in 0.05% (v/v) Tween 20 (PBST) (Corning, Manassas, Va.). Membranes were then incubated with primary antibodies phospho-STAT3 (#9131), MYC (#5605), NF-κB p65 (#D14E12), pAKT (#9272) Histone 3 (#9715) from Cell Signaling, (Danvers, Mass.); MEK1/2 (ab70613) and p38 (ab795) from Abcam (Cambridge, Mass.) overnight. After washing in PBS containing 0.05% (v/v) Tween 20 (PBST), membranes were incubated with Goat anti-Rabbit IgG (H+L) Secondary Antibody (Thermo Scientific Rockford, Ill.). After washing, membranes were developed with the Clarity Western ECL Blotting Substrate (Hercules, Calif.).
On the technique in general: A western blot detects proteins with antibodies after separation by electrophoresis.

For test [2], the system named is MAPK, AKT, NF-κB pathways. The test is described as follows: Western blot of MAPK, AKT and NF-κB signaling in adult pig articular chondrocytes. Type of test: cell-based. The note with it: 24 hours. Here is the method: FIGS. 30A-30B. […] (FIG. 30A) Adult pig articular chondrocytes were cultured for 24 hours with the indicated cytokines or RCGD 423 and the levels of pSTAT3 and MYC were measured with respect to histone H3. Representative data for other proteins in the MAPK (p38 and MEK1/2), AKT (phospho-AKT; pAKT) or NF-KB (NF-KB p65) are also shown. (FIG. 30B) Levels of transcription of genes indicative of a catabolic response were determined via quantitative PCR in adult pig articular chondrocytes treated with OSM, IL-6, TNF-α, LIF or RCGD 423. Data are represented at mean±SD.
Cartilage degeneration is generally considered a feed-forward process, in which small losses of chondrocytes result in microenvironmental changes including induction of an inflammatory response and other pro-catabolic events (Hunziker, 2002). In turn, these alterations in the joint milieu promote production of matrix degrading proteins including MMPs (collagenases) and proteins of the ADAMTS family (aggrecanases). LIF has been implicated in promoting this cycle of matrix destruction during the pathogenesis of osteoarthritis (Hui et al., 2000; Lotz et al., 1992), although its role in this process has been controversial. In order to better understand the mechanism of action of LIF, RCGD 423 and known pro-inflammatory cytokines in the promotion of degeneration, we stimulated adult pig articular chondrocytes with these molecules and quantitated the levels of activated downstream proteins that mediate the cellular signaling response (FIG. 30A).
as §1

For test [3], the system named is pSTAT3 and MYC. Description: Western blot of pSTAT3 and MYC in human fetal articular chondrocytes. The conditions noted are these: 72 hours. Type of test: cell-based.
Text: Moreover, LIFR expression is localized to chondrocytes in the superficial zone of articular cartilage throughout ontogeny. In contrast, LIF expression is strongest during fetal development and then diminishes over time (Table S1). […] LIF signals through a heterodimeric receptor comprised of LIFR and gp130 (IL6RST); upon binding extracellular ligand, both receptors are phosphorylated and recruit members of the JAK family which in turn phosphorylate STAT3 (pSTAT3). pSTAT3 then enters the nucleus to act as a transcriptional regulator. […] We first performed ELISA on human fetal and adult synovial fluid to determine if LIF protein levels change over time. […] Western blot analysis of the downstream effectors of LIF signaling, pSTAT3 and MYC, further supported reduced levels of LIF signaling in adult articular cartilage (FIG. 26A). We then confirmed that adolescent and adult articular chondrocytes in the superficial zone express both receptors required for LIF signaling (FIG. 33) and that these cells are the most anabolic of adult chondrocytes (FIGS. 34A-34B). Because STAT3 and MYC can respond to a variety of stimuli, we next wanted to determine if the increased levels of pSTAT3 and MYC in fetal cells were a direct result of increased LIF/LIFR signaling.
as §1

On to TGF-beta 1: morphogen, for which the “expansion of cartilage tissue in explants” value (“expansion” for short) in the test on cartilage explants is on record as “little or no effect”.
For `Cl.O=C(NNc1nc2cc(F)ccc2n2cccc12)c1cnccn1` [gp130 inhibitor, reference compound], the “ability of both LIF and RCGD 423 to induce increases in pSTAT3 and MYC” value in the test on pSTAT3 and MYC [1] is reported as “greatly reduced”.
The same measure, in the same setting: next, `C[C@@H]1CCN(C(=O)CC#N)C[C@@H]1N(C)c1ncnc2[nH]ccc12` [JAK inhibitor, reference compound]: “greatly reduced”.

B1: GDF5: BMPR1B ligand (protein, UniProt P43026 382-501, looked up)
Growth/differentiation factor …: APLATRQGKRPSKNLKARCSRKALHVNFKDMGWDDWIIAPLEYEAFHCEGLCEFPLRSHLEPTNHAVIQTLMNSMDPESTPPTCCVPTRLSPISILFIDSANNVVYKQYEDMVVESCGCR
With B1, in the test on cartilage explants, the “expansion” value is reported as “little or no effect”.

B2: OSM: IL-6 family cytokine oncostatin M (protein, UniProt P13725 26-221, looked up)
Oncostatin-M: AAIGSCSKEYRVLLGQLQKQTDLMQDTSRLLDPYIRIQGLDVPKLREHCRERPGAFPSEETLRGLGRRGFLQTLNATLGCVLHRLADLEQRLPKAQDLERSGLNIEDLEKLQMARPNILGLRNNIYCMAQLLDNSDTAEPTKAGRGASQPPTPTPASDAFQRKLEGCRFLHGYHRFMHSVGRVFSKWGESPNRSRR
As for B2, in the test with pSTAT3 and MYC [1], the “levels of MYC” value is “does not elicit any upregulation” and the “levels of pSTAT3” value is reported as “does not elicit any upregulation”. For the same molecule, in test [2], the pro-inflammatory response entry was “strong pro-inflammatory response”.

B3: BMP4: driver of chondrocyte hypertrophy (protein, UniProt P12644 293-408, looked up)
Bone morphogenetic protein 4: SPKHHSQRARKKNKNCRRHSLYVDFSDVGWNDWIVAPPGYQAFYCHGDCPFPLADHLNSTNHAIVQTLVNSVNSSIPKACCVPTELSAISMLYLDEYDKVVLKNYQEMVVEGCGCR
Turning to B3, the “expansion” value with cartilage explants is listed as “little or no effect”.

B4: IL-la: inflammatory cytokine (protein, UniProt P01583 113-271, looked up)
Interleukin-1 alpha: SAPFSFLSNVKYNFMRIIKYEFILNDALNQSIIRANDQYLTAAALHNLDEAVKFDMGAYKSSKDDAKITVILRISKTQLYVTAQDEDQPVLLKEMPEIPKTITGSETNLLFFWETHGTKNYFTSVAHPNLFIATKQDYWVCLAGGPPSITDFQILENQA
With B4, in the test with pSTAT3 and MYC [1], the “levels of MYC” value was “inhibit accumulation” and the “levels of pSTAT3” value is “inhibit accumulation”.

B5: sLIFR: soluble LIFR, which binds and sequesters LIF (protein, UniProt P42702 45-833, looked up)
extracellular domain: QKKGAPHDLKCVTNNLQVWNCSWKAPSGTGRGTDYEVCIENRSRSCYQLEKTSIKIPALSHGDYEITINSLHDFGSSTSKFTLNEQNVSLIPDTPEILNLSADFSTSTLYLKWNDRGSVFPHRSNVIWEIKVLRKESMELVKLVTHNTTLNGKDTLHHWSWASDMPLECAIHFVEIRCYIDNLHFSGLEEWSDWSPVKNISWIPDSQTKVFPQDKVILVGSDITFCCVSQEKVLSALIGHTNCPLIHLDGENVAIKIRNISVSASSGTNVVFTTEDNIFGTVIFAGYPPDTPQQLNCETHDLKEIICSWNPGRVTALVGPRATSYTLVESFSGKYVRLKRAEAPTNESYQLLFQMLPNQEIYNFTLNAHNPLGRSQSTILVNITEKVYPHTPTSFKVKDINSTAVKLSWHLPGNFAKINFLCEIEIKKSNSVQEQRNVTIKGVENSSYLVALDKLNPYTLYTFRIRCSTETFWKWSKWSNKKQHLTTEASPSKGPDTWREWSSDGKNLIIYWKPLPINEANGKILSYNVSCSSDEETQSLSEIPDPQHKAEIRLDKNDYIISVVAKNSVGSSPPSKIASMEIPNDDLKIEQVVGMGKGILLTWHYDPNMTCDYVIKWCNSSRSEPCLMDWRKVPSNSTETVIESDEFRPGIRYNFFLYGCRNQGYQLLRSMIGYIEELAPIVAPNFTVEDTSADSILVKWEDIPVEELRGFLRGYLFYFGKGERDTSKMRVLESGRSDIKVKNITDISQKTLRIADLQGKTSYHLVLRAYTDGGVGPEKSMYVVTKENS
modifications: extracellular domain
Regarding B5, the “levels of MYC” value in the test with pSTAT3 and MYC [3] is on record as “substantially reduced”; in the test with pSTAT3 and MYC [3] (listed as LIFR), “reduces”; with pSTAT3 and MYC [3] (listed as soluble LIF receptor) it was “reduces”. Further, the “levels of pSTAT3” value in the test with pSTAT3 and MYC [3] is reported as “substantially reduced”; in the test on pSTAT3 and MYC [3] (listed as LIFR), “reduces”; with pSTAT3 and MYC [3] (listed as soluble LIF receptor) it was “reduces”.
